Experimental findings from publication PMC4762201 (Nature, 2016) are described below.

Sequences and labels used below:
B2: Prp31 (natural protein)
chain: MSSEEDYFDELEYDLADEVNEEKEDIQTKKLTTVNCQTEKFNPFEILPESIELFRTLALISPDRLSLSETAQILPKIVDLKRILQQQEIDFIKLLPFFNEIIPLIKSNIKLMHNFLISLYSRRFPELSSLIPSPLQYSKVISILENENYSKNESDELFFHLENKAKLTREQILVLTMSMKTSFKNKEPLDIKTRTQILEANSILENLWKLQEDIGQYIASKISIIAPNVCFLVGPEIAAQLIAHAGGVLEFSRIPSCNIASIGKNKHLSHELHTLESGVRQEGYLFASDMIQKFPVSVHKQMLRMLCAKVSLAARVDAGQKNGDRNTVLAHKWKAELSKKARKLSEAPSISETKALPIPEDQPKKKRAGRKFRKYKEKFRLSHVRQLQNRMEFGKQEQTVLDSYGEEVGLGMSNTSLQQAVGATSGSRRSAGNQAKLTKVMKHRISEANQQADEFLISLGHNTEQPNLSPEMVQMHKKQHTNPEEETNWFSGHG
B5: Prp3 (natural protein)
chain: MPPRNTYEKGNPKRQNSPYYKPSFLRREETTNDEEKFQGHGLKTELHSALKSSNLNLIRRTYQTGENPYLSDPHDRGSSSRFNRRYERGLKFYQKGEISKRIAQERTLQKQQEEEELKRKLKQEEDEKDKRKLIESGDLPNLELHEDKFLLDLSKFKIYYDNNHGYEWWDTAYLDEKGELMEKYDMNGTSPAEEKLAEDIDEVDDDDDDEHPSIRYVAHPLPEKINEAKVSIKAYLTQHERKRLRRNRRKMAREAREIKIKLGLLPKPEPKVKLSNMMSVFENDQNITDPTAWEKVVKDQVDLRKRKHLEENERRHEDAIKRRKEAVNMNVEKPTVYHCKVFQFKNLQNPKIRFKLKMNSKELSLKGLCLRIRDDGPGIIIVVGNEKSCKFYENLVMKRIKWNEDFELHTNTGDIKMDMHNNSISKTWEGYLQDCKFKGWFMKVCNDQDSLLRTLGQFDSEHFYSPVQT
B6: Prp4 (natural protein)
chain: MSKYIALENLPVDLQHKGATQNESTADILKQLPHERLQAVLEKIPEEDLEVRRLLSILKKPEVVENEDVQQRRIRLAEILMVDEIDLENINNMENINGEEVDEEDDEDFFTPATSELIFARRFLINYSLERSRKRLQKEMERHQKFNTRQELLSRRTELQRMANLELAGSQLVSTKPISAVSLSTDDMVVATGSWAGDLQVLNSQTLQPLTQKLDSHVGKIGAIDWHPDSNNQMISCAEDGLIKNFQYSNEEGGLRLLGDLVGHERRISDVKYHPSGKFIGSASHDMTWRLWDASTHQELLLQEGHDKGVFSLSFQCDGSLVCSGGMDSLSMLWDIRSGSKVMTLAGHSKPIYTVAWSPNGYQVATGGGDGIINVWDIRKRDEGQLNQILAHRNIVTQVRFSKEDGGKKLVSCGYDNLINVYSSDTWLKMGSLAGHTDKIISLDISNNSHFLVSGGWDRSIKLWN

Experiment in all cases: cryo-EM structure
One experiment concerns the target Brr2 (S. cerevisiae, UniProt P32639 1-2163).
A further experiment has as its target T1, Prp6 (S. cerevisiae, UniProt P19735 1-899).
T1 sequence: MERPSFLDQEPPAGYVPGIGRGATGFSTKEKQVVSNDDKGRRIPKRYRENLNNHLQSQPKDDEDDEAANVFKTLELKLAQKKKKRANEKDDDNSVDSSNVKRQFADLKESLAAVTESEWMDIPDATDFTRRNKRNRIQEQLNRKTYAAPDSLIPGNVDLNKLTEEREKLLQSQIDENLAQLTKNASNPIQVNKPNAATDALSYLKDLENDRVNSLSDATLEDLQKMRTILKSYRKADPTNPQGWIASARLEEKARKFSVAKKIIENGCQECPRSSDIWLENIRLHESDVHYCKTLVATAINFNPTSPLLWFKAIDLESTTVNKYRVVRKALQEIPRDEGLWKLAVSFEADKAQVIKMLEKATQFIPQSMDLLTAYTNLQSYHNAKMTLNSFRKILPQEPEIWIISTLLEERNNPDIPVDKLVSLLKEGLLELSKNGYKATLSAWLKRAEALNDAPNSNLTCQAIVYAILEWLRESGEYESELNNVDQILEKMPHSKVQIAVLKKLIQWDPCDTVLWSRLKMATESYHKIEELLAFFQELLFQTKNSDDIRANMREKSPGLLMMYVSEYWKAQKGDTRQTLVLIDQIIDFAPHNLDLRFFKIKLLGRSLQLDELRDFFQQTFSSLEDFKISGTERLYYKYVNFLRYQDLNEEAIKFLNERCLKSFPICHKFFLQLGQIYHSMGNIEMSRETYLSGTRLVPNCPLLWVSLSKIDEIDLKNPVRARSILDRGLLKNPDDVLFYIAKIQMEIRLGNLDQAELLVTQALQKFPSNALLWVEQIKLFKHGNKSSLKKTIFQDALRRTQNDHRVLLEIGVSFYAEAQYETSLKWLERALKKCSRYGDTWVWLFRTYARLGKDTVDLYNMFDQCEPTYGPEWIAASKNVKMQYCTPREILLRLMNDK

In the experiment “Prp31” the target is B2.
The experiment “Prp3” concerns the target B5.
The experiment “Prp4” has as its target B6.

Chain of Brr2 (P32639 whole entry): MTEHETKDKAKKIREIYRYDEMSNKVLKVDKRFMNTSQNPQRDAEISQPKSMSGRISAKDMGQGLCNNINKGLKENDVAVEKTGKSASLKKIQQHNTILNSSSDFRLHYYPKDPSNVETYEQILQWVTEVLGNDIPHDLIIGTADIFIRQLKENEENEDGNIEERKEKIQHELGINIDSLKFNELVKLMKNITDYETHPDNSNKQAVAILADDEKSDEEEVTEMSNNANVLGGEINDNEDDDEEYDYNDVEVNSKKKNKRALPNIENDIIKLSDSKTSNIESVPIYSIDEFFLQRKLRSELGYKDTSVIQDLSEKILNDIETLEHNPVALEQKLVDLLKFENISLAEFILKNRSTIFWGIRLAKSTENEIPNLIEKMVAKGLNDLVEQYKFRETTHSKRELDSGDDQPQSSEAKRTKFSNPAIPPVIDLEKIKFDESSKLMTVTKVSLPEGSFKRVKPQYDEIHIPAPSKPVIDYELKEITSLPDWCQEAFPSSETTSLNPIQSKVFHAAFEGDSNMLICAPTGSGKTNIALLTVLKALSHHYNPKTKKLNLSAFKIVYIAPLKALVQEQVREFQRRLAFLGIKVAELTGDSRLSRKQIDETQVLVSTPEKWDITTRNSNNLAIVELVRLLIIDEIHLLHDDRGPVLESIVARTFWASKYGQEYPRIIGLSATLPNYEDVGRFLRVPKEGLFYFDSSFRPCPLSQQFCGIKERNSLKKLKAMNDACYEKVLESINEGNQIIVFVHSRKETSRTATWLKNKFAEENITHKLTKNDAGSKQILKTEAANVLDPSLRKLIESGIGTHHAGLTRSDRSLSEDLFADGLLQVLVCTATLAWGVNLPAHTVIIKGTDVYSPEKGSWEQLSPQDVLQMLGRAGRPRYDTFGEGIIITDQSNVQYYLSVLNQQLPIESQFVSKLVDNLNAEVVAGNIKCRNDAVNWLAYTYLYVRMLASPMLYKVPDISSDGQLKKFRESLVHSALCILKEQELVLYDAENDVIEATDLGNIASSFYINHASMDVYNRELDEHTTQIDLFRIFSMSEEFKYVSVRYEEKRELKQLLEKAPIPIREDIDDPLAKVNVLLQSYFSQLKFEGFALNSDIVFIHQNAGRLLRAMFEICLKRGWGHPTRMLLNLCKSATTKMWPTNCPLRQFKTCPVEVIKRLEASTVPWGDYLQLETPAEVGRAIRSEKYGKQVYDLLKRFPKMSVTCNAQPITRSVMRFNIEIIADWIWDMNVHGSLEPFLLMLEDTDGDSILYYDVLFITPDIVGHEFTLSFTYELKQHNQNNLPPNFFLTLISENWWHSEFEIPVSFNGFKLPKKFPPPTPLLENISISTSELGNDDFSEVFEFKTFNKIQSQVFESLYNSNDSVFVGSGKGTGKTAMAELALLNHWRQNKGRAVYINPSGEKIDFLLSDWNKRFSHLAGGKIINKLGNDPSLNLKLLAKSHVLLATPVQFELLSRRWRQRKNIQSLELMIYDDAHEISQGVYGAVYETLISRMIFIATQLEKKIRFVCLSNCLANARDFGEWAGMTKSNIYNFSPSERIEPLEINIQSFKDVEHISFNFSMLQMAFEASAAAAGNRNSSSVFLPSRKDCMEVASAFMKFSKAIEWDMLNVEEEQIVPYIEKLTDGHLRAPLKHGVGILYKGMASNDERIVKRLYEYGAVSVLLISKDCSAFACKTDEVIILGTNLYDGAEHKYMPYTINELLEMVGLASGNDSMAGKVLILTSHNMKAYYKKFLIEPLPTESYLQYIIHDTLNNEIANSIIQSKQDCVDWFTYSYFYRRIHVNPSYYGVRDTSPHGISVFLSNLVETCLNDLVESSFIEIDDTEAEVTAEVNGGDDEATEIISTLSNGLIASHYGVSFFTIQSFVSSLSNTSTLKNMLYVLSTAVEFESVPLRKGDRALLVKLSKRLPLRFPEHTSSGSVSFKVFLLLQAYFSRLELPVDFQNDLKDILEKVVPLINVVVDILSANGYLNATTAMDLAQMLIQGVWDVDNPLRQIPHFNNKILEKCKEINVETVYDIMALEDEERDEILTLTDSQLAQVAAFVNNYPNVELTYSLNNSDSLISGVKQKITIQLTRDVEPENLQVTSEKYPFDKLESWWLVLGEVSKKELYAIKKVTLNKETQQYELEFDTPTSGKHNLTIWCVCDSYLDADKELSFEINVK

B1: Snu66 (natural protein, S. cerevisiae, UniProt Q12420 1-587, looked up)
chain: MNKTENLSIEETNEIREKLGMKPIPVFQEKNTDHKESLSIEETNELRASLGLKLIPPQQNFNSSPPNVHNTSKIDELREKITKFQKKANAPLRMAHLLEETNVNDDSSWLENMDAIPSSHESKRSSTLPRKGATKEDENIDLHNVQVSYNIEALSPKKDTILTLKESSIFDDTDSTEVLENVKAAEENADREKLRLRQMNKDRRQKKKILNVSSLDIEEEEEGEKHSITTTHLIIGAEQGVMKAPNTISAKPPTGKVKVNFDSANNMSDEDGGDFKPLKIKKRKIKDPRSTKARKSKITDKMEIVKLVDEDESLSWMEEEQPVTIINPRTSSNNELKGPEDLAREIEKARDEEKRRTESILKMREISNSIVVDEKVTFLNTLDTSLSERSATENKVKVHGEGEKNIGDVTNGHTKEGSGNNTLTEAVNNEPNYEGDAENAPNFFSGLASTLGYLRKKSVFTTGDVDLKPGKDVNNSESLRRDVRNKEHTGTGTYTKDKLHGLEQFTSSDSSNANTHSKRQDHYDPDIKLVYRDEKGNRLTTKEAYKKLSQKFHGTKSNKKKRAKMKSRIEARKNTPENGSLFEFDDN
For the molecule B1, in the experiment with Brr2, the binding result was “binds”.

Consider B2, for which the binding result with Prp6 is “binds”.

B3: Dib1 (natural protein, S. cerevisiae, UniProt Q06819 1-143, looked up)
chain: MASVLLPQLRTGWHVDQAIVTETKRLVVIRFGRKNDRQCMIMDELLSSIAERVRNFAVIYLCDIDEVSDFDEMYELTDPMTVMFFYHNKHMMCDFGTGNNNKLNFIVDDKQEMIDILETIFRGARKNKGLVVSPYDYNHKRVS
As for B3, the binding result with Prp31 is listed as “binds”.

B4: Snu13 (natural protein, S. cerevisiae, UniProt P39990 1-126, looked up)
chain: MSAPNPKAFPLADAALTQQILDVVQQAANLRQLKKGANEATKTLNRGISEFIIMAADCEPIEILLHLPLLCEDKNVPYVFVPSRVALGRACGVSRPVIAASITTNDASAIKTQIYAVKDKIETLLI
In the case of B4, the binding result in the experiment with Prp3, with Prp31 and with Prp4 was “binds” each time.

Consider B5, for which the binding result with Brr2 is on record as “binds”.

Regarding B6, the binding result with Prp3 is reported as “binds”.
